Results published in patent publication US20240132578A1.

Assays:
Assay in all cases: cell-based or functional assay
[1] = target: HIV-1 envelope glycoprotein (Env) of isolate APV_6, on pseudovirus (HIV-1)
[2] = target: HIV-1 Env of isolate MGRM-AG-001 (pseudovirus) (HIV-1)
[3] = target: HIV-1 JR-CSF Env T303A (HIV-1 (isolate JR-CSF, clade B)) (UniProt P20871)
[4] = target: HIV-1 envelope glycoprotein (Env) of isolate MGRM-Chronic-B-008, on pseudovirus (HIV-1)
[5] = target: HIV-1 JR-CSF Env F468A (HIV-1 (isolate JR-CSF)) (UniProt P20871)
[6] = target: HIV-1 envelope glycoprotein (Env) of isolate MG RM-A-007, subtype A (HIV-1)
[7] = target: HIV-1 JR-CSF Env I423A (I4234 in the source) (HIV-1 (isolate JR-CSF)) (UniProt P20871)
[8] = target: HIV-1 envelope glycoprotein (Env) of isolate MG RM-A-010, subtype A (HIV-1)
[9] = target: HIV-1 Env of isolate MGRM-F1-013 (pseudovirus) (HIV-1)
[10] = target: HIV-1 envelope glycoprotein (Env) of isolate MG RM-A-011, subtype A (HIV-1)
[11] = target: HIV-1 Env of isolate MGRM-D-019 (pseudovirus) (HIV-1)
[12] = target: HIV-1 94UG103 Env (HIV-1)
[13] = target: HIV-1 Env of pseudovirus isolate MGRM-C-026 (clade C) (HIV-1)
[14] = target: HIV-1 93IN905 Env (HIV-1)
[15] = target: HIV-1 Env of isolate MGRM-AG-012 (subtype AG) (HIV-1)
[16] = target: HIV-1 Env of isolate MGRM-AG-002 (subtype AG) (HIV-1)
[17] = target: HIV-1 Env of isolate MGRM-F1-013 (HIV-1)
[18] = target: HIV-1 Env of isolate MGRM-AG-013 (subtype AG) (HIV-1)
[19] = target: HIV-1 MGRM-A-010 Env (HIV-1)
[20] = target: HIV-1 Env of isolate 94KE105 (subtype AC) (HIV-1)
[21] = target: HIV-1 Env of isolate MGRM-Chronic-B-004 (HIV-1)
[22] = target: HIV-1 Env of isolate MGRM-D-022 (pseudovirus) (HIV-1)
[23] = target: HIV-1 Env of pseudovirus MGRM-F1-010 (HIV-1)
[24] = target: HIV-1 Env of pseudovirus MGRM-D-029 (HIV-1)
[25] = target: HIV-1 Env of pseudovirus MGRM-D-018 (HIV-1)
[26] = target: HIV-1 Env of isolate MG RM-A-009 (pseudovirus) (HIV-1)
[27] = target: HIV-1 Env of isolate MG RM-A-011 (pseudovirus) (HIV-1)
[28] = target: HIV-1 Env of isolate 92UG005 (HIV-1)
[29] = target: HIV-1 Env of isolate MGRM-D-005 (HIV-1)
[30] = target: HIV-1 Env of pseudovirus isolate MGRM-Chronic-B-008 (clade B) (HIV-1)
[31] = target: HIV-1 Env of isolate MGRM-C-020 (subtype C), on pseudovirus (HIV-1)
[32] = target: HIV-1 Env of isolate MGRM-C-026 (subtype C), on pseudovirus (HIV-1)
[33] = target: HIV-1 Env of isolate MGRM-C-019 (subtype C), on pseudovirus (HIV-1)

Sequence of PGT-145 (4995_P16) (antibody) (VH): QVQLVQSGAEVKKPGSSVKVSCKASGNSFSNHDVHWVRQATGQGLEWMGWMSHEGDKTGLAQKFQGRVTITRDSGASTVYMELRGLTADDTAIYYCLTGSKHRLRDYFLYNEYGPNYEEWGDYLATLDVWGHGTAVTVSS
Sequence of PGT-145 (4995_P16) (antibody) (VL): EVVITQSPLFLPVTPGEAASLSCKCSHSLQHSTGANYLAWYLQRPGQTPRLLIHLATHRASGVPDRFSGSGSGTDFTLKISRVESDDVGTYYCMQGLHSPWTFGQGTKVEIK
Sequence of PGT-143 (4980_N08) (antibody) (VH): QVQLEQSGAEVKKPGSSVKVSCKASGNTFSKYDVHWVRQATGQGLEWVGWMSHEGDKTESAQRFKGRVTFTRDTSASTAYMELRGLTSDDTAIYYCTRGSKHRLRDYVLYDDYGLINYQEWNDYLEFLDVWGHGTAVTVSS
Sequence of PGT-143 (4980_N08) (antibody) (VL): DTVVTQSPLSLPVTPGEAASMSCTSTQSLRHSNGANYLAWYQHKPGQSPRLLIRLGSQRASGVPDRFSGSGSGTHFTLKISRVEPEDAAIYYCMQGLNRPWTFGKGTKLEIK
Sequence of PGT-144 (4970_K22) (antibody) (VH): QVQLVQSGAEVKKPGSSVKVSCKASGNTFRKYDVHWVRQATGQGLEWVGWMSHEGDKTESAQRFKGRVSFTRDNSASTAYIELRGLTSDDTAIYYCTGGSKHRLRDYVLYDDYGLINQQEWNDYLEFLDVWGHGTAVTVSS
Sequence of PGT-144 (4970_K22) (antibody) (VL): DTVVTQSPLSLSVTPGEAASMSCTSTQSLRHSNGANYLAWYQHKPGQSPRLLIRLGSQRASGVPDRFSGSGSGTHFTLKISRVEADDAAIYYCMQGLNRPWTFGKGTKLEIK
Sequence of PGT-141 (4964_G22; 4993_K13) (antibody) (VH): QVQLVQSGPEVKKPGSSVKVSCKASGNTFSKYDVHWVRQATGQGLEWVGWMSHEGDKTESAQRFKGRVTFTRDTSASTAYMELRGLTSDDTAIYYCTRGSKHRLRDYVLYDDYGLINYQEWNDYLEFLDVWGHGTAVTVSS
Sequence of PGT-141 (4964_G22; 4993_K13) (antibody) (VL): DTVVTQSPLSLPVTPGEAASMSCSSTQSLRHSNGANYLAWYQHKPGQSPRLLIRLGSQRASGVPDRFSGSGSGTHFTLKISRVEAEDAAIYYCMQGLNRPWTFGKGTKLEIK
Sequence of PGT-142 (4995_E20) (antibody) (VH): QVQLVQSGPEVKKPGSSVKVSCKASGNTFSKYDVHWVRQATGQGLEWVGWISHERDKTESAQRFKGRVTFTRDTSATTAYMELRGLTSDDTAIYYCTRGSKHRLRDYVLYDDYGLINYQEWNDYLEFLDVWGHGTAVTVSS

5145_B14 (PGT-127) (antibody) was tested, and the IC50, pseudovirus neutralization [1] was 0.04 µg/mL, the IC50 (µg/mL), pseudovirus neutralization [2] was over 50 µg/mL and the Fold IC50 increase relative to wild-type [3] was over 500 fold. The IC50, pseudovirus neutralization [4] was 21.5 µg/mL, the Fold IC50 increase relative to wild-type (pseudovirus neutralization) [5] was 3 fold and the IC50, pseudovirus neutralization [6] was over 50 µg/mL. For the same substance, the Fold IC50 increase relative to wild-type (pseudovirus neutralization) [7] was 0.5 fold, the IC50, pseudovirus neutralization [8] was 0.017 µg/mL and the IC50 (µg/mL), pseudovirus neutralization [9] was over 50 µg/mL. The IC50, pseudovirus neutralization [10] was over 50 µg/mL.

With 5147_N06 (PGT-130) (antibody) the IC50 (µg/mL), pseudovirus neutralization [11] was over 50 µg/mL, the IC50, pseudovirus neutralization [12] was 0.635 µg/mL and the Fold IC50 increase relative to wild-type [3] was over 250 fold. For the same substance, the IC50, pseudovirus neutralization [13] was 0.036 µg/mL, the Fold IC50 increase relative to wild-type (pseudovirus neutralization) [5] was 0.4 fold and the IC50, pseudovirus neutralization [14] was 0.0182 µg/mL. It also gave an IC50, pseudovirus neutralization [15] of over 50 µg/mL, a Fold IC50 increase relative to wild-type (pseudovirus neutralization) [7] of over 1000 fold and an IC50, pseudovirus neutralization [16] of over 50 µg/mL. The IC50 (µg/mL), pseudovirus neutralization [17] was over 50 µg/mL, the IC50, pseudovirus neutralization [18] was 0.01 µg/mL and the IC50, pseudovirus neutralization [19] was 0.0054 µg/mL. The IC50, pseudovirus neutralization [20] was 0.004 µg/mL, the IC50 (µg/mL), pseudovirus neutralization [21] was 0.01 µg/mL and the IC50 (µg/mL), pseudovirus neutralization [22] was over 50 µg/mL.

Substance PGT-141 (4964_G22; 4993_K13) (antibody) has an IC50, pseudovirus neutralization [23] of over 50 µg/mL, an IC50, pseudovirus neutralization [24] of 0.057 µg/mL and an IC50, pseudovirus neutralization [25] of over 50 µg/mL.

In the case of PGT-142 (4995_E20) (antibody), the IC50, pseudovirus neutralization [23] is reported as over 50 µg/mL, the IC50, pseudovirus neutralization [24] is reported as 0.192 µg/mL and the IC50, pseudovirus neutralization [25] is reported as over 50 µg/mL.

PGT-143 (4980_N08) (antibody) gave an IC50, pseudovirus neutralization [23] of over 50 µg/mL, an IC50, pseudovirus neutralization [24] of 0.2 µg/mL and an IC50, pseudovirus neutralization [25] of over 50 µg/mL.

In the case of PGT-144 (4970_K22) (antibody), the IC50, pseudovirus neutralization [23] is reported as over 50 µg/mL, the IC50, pseudovirus neutralization [24] is reported as 0.459 µg/mL and the IC50, pseudovirus neutralization [25] is reported as over 50 µg/mL.

In the case of PGT-145 (4995_P16) (antibody), the IC50, pseudovirus neutralization [23] is reported as 3.32 µg/mL, the IC50, pseudovirus neutralization [24] is reported as 0.03 µg/mL and the IC50, pseudovirus neutralization [25] is reported as 0.065 µg/mL.

VRC01 (antibody) showed an IC50 (µg/mL), single-round pseudovirus neutralization [26] of 0.118 µg/mL, an IC50 (µg/mL), single-round pseudovirus neutralization [27] of 0.273 µg/mL and an IC50 (µg/mL), pseudovirus neutralization [28] of 0.576 µg/mL. The IC50 (µg/mL), pseudovirus neutralization [29] was over 50 µg/mL, the IC50, pseudovirus neutralization [23] was 0.097 µg/mL and the IC50, pseudovirus neutralization [30] was 0.155 µg/mL. The IC50, single-round pseudovirus neutralization [31] was 0.396 µg/mL, the IC50, single-round pseudovirus neutralization [32] was 0.707 µg/mL and the IC50, single-round pseudovirus neutralization [33] was 1.13 µg/mL. It also gave an IC50, pseudovirus neutralization [24] of 3.22 µg/mL and an IC50, pseudovirus neutralization [25] of over 50 µg/mL.
